± gives the standard deviation of the averaged measurements.
Assays:
MCF7 = assay: percentage of EdU-negative (G0-arrested) nuclei per well, 72 h; higher = more G0 arrest; settings: reference: sequence is the full UniProt precursor, the tested protein was the secreted form or ectodomain
hTERT-HMEC = assay: as above; settings: reference: sequence is the full UniProt precursor, the tested protein was the secreted form or ectodomain
[1] = protein concentration 0.0225 µM
[2] = protein concentration 0.0143975 µM
[3] = protein concentration 0.0290625 µM
[4] = protein concentration 0.143975 µM
[5] = protein concentration 0.290625 µM
[6] = protein concentration 0.0065 µM
[7] = protein concentration 0.00525 µM
[8] = protein concentration 0.0525 µM
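Further: secreted proteins added to cultured cells, EdU pulse at the end, nuclei found by Hoechst imaging, EdU status from nuclear versus surrounding ring intensity ratio, PBS as neutral control.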

MEACCLLQLPQRLLLLGAAALTATALETADLAELCGQTWQGDGLLLRSHAASRRFYFVAPDTDCGLWVQAAAPGDRIRFQFRFFLVYSLTPAPPALNTSSPAPADPCAPGSYLQFYEGPPGAPRPLGSPLCGLNIPVPVASSGPFLGLRLVTRGRQPRVDFVGEVTSFRLGPCGAYFRCQNGRCIPSSLVCDPWGMDNCGDGSDQGSWSPADCRGPSPVPSQTGSTDAHTSRSLTPSPALGSAGSLWIAAERSSPAGRDPTRQDAALEGSTE [Q5SZI1]
percentage of EdU-negative (MCF7; [1]): 24.6 ± 1.8%
percentage of EdU-negative (MCF7; protein concentration 0.225 µM): 25.3 ± 0.88%
percentage of EdU-negative (hTERT-HMEC; [1]): 5.13 ± 0.83%
percentage of EdU-negative (hTERT-HMEC; protein concentration 0.225 µM): 5.979 ± 0.048%

MEALMARGALTGPLRALCLLGCLLSHAAAAPSPIIKFPGDVAPKTDKELAVQYLNTFYGCPKESCNLFVLKDTLKKMQKFFGLPQTGDLDQNTIETMRKPRCGNPDVANYNFFPRKPKWDKNQITYRIIGYTPDLDPETVDDAFARAFQVWSDVTPLRFSRIHDGEADIMINFGRWEHGDGYPFDGKDGLLAHAFAPGTGVGGDSHFDDDELWTLGEGQVVRVKYGNADGEYCKFPFLFNGKEYNSCTDTGRSDGFLWCSTTYNFEKDGKYGFCPHEALFTMGGNAEGQPCKFPFRFQGTSYDSCTTEGRTDGYRWCGTTEDYDRDKKYGFCPETAMSTVGGNSEGAPCVFPFTFLGNKYESCTSAGRSDGKMWCATTANYDDDRKWGFCPDQGYSLFLVAAHEFGHAMGLEHSQDPGALMAPIYTYTKNFRLSQDDIKGIQELYGASPDIDLGTGPTPTLGPVTPEICKQDIVFDGIAQIRGEIFFFKDRFIWRTVTPRDKPMGPLLVATFWPELPEKIDAVYEAPQEEKAVFFAGNEYWIYSASTLERGYPKPLTSLGLPPDVQRVDAAFNWSKNKKTYIFAGDKFWRYNEVKKKMDPGFPKLIADAWNAIPDNLDAVVDLQGGGHSYFFKGAYYLKLENQSLKSVKFGSIKSDWLGC
percentage of EdU-negative (MCF7; [2]): 23.9 ± 0.91%
percentage of EdU-negative (MCF7; [3]): 26.7 ± 1.5%
percentage of EdU-negative (MCF7; [4]): 25.25 ± 0.19%
percentage of EdU-negative (MCF7; [5]): 27.8 ± 0.84%
percentage of EdU-negative (hTERT-HMEC; [2]): 4.84 ± 0.7%
percentage of EdU-negative (hTERT-HMEC; [3]): 5.59 ± 1.1%
percentage of EdU-negative (hTERT-HMEC; [4]): 9.87 ± 1.2%
percentage of EdU-negative (hTERT-HMEC; [5]): 4.97 ± 0.54%

MEALPLLAATTPDHGRHRRLLLLPLLLFLLPAGAVQGWETEERPRTREEECHFYAGGQVYPGEASRVSVADHSLHLSKAKISKPAPYWEGTAVIDGEFKELKLTDYRGKYLVFFFYPLDFTFVCPTEIIAFGDRLEEFRSINTEVVACSVDSQFTHLAWINTPRRQGGLGPIRIPLLSDLTHQISKDYGVYLEDSGHTLRGLFIIDDKGILRQITLNDLPVGRSVDETLRLVQAFQYTDKHGEVCPAGWKPGSETIIPDPAGKLKYFDKLN
percentage of EdU-negative (MCF7; [1]): 26.1 ± 1.3%
percentage of EdU-negative (MCF7; protein concentration 0.225 µM): 27.8 ± 0.15%
percentage of EdU-negative (hTERT-HMEC; [1]): 5.57 ± 1.3%
percentage of EdU-negative (hTERT-HMEC; protein concentration 0.225 µM): 4.84 ± 0.26%

MEAVAVAAAVGVLLLAGAGGAAGDEAREAAAVRALVARLLGPGPAADFSVSVERALAAKPGLDTYSLGGGGAARVRVRGSTGVAAAAGLHRYLRDFCGCHVAWSGSQLRLPRPLPAVPGELTEATPNRYRYYQNVCTQSYSFVWWDWARWEREIDWMALNGINLALAWSGQEAIWQRVYLALGLTQAEINEFFTGPAFLAWGRMGNLHTWDGPLPPSWHIKQLYLQHRVLDQMRSFGMTPVLPAFAGHVPEAVTRVFPQVNVTKMGSWGHFNCSYSCSFLLAPEDPIFPIIGSLFLRELIKEFGTDHIYGADTFNEMQPPSSEPSYLAAATTAVYEAMTAVDTEAVWLLQGWLFQHQPQFWGPAQIRAVLGAVPRGRLLVLDLFAESQPVYTRTASFQGQPFIWCMLHNFGGNHGLFGALEAVNGGPEAARLFPNSTMVGTGMAPEGISQNEVVYSLMAELGWRKDPVPDLAAWVTSFAARRYGVSHPDAGAAWRLLLRSVYNCSGEACRGHNRSPLVRRPSLQMNTSIWYNRSDVFEAWRLLLTSAPSLATSPAFRYDLLDLTRQAVQELVSLYYEEARSAYLSKELASLLRAGGVLAYELLPALDEVLASDSRFLLGSWLEQARAAAVSEAEADFYEQNSRYQLTLWGPEGNILDYANKQLAGLVANYYTPRWRLFLEALVDSVAQGIPFQQHQFDKNVFQLEQAFVLSKQRYPSQPRGDTVDLAKKIFLKYYPRWVAGSW
percentage of EdU-negative (MCF7; [6]): 24.9 ± 1.1%
percentage of EdU-negative (MCF7; protein concentration 0.065 µM): 26 ± 2.8%
percentage of EdU-negative (hTERT-HMEC; [6]): 4.39 ± 0.1%
percentage of EdU-negative (hTERT-HMEC; protein concentration 0.065 µM): 5.55 ± 0.91%

MEDLCVANTLFALNLFKHLAKASPTQNLFLSPWSISSTMAMVYMGSRGSTEDQMAKVLQFNEVGANAVTPMTPENFTSCGFMQQIQKGSYPDAILQAQAADKIHSSFRSLSSAINASTGNYLLESVNKLFGEKSASFREEYIRLCQKYYSSEPQAVDFLECAEEARKKINSWVKTQTKGKIPNLLPEGSVDGDTRMVLVNAVYFKGKWKTPFEKKLNGLYPFRVNSAQRTPVQMMYLREKLNIGYIEDLKAQILELPYAGDVSMFLLLPDEIADVSTGLELLESEITYDKLNKWTSKDKMAEDEVEVYIPQFKLEEHYELRSILRSMGMEDAFNKGRANFSGMSERNDLFLSEVFHQAMVDVNEEGTEAAAGTGGVMTGRTGHGGPQFVADHPFLFLIMHKITNCILFFGRFSSP
percentage of EdU-negative (MCF7; [7]): 24.7 ± 0.25%
percentage of EdU-negative (MCF7; [8]): 27.383 ± 0.014%
percentage of EdU-negative (hTERT-HMEC; [7]): 5.431 ± 0.036%
percentage of EdU-negative (hTERT-HMEC; [8]): 5.26 ± 1.3%

MEEAILVPCVLGLLLLPILAMLMALCVHCHRLPGSYDSTSSDSLYPRGIQFKRPHTVAPWPPAYPPVTSYPPLSQPDLLPIPRSPQPLGGSHRTPSSRRDSDGANSVASYENEGASGIRGAQAGWGVWGPSWTRLTPVSLPPEPACEDADEDEDDYHNPGYLVVLPDSTPATSTAAPSAPALSTPGIRDSAFSMESIDDYVNVPESGESAEASLDGSREYVNVSQELHPGAAKTEPAALSSQEAEEVEEEGAPDYENLQELN
percentage of EdU-negative (MCF7; [1]): 25.6 ± 1.2%
percentage of EdU-negative (MCF7; protein concentration 0.225 µM): 25.8 ± 2.6%
percentage of EdU-negative (hTERT-HMEC; [1]): 5.1 ± 0.68%
percentage of EdU-negative (hTERT-HMEC; protein concentration 0.225 µM): 5.5816 ± 0.0039%

Source: the supplement of paper PMC11316812
